From publication PMC6902028, “Elucidating the Immune Evasion Mechanisms of Borrelia mayonii, the Causative Agent of Lyme Disease” (Frontiers in Immunology, 2019)

Biological target: T1, complement regulator factor H (FH) (human, UniProt P08603 19-1231)
T1 construct: source: bought: Complement Technology (purified); native, in non-immune human serum (NHS, NHS-EDTA)
Assay: ELISA; CspA of B. mayonii MN14-1420 (5 μg/ml) immobilised, increasing concentrations of FH; non-linear regression, one-site specific binding model
Details: both partners purified

T1 sequence (P08603 19-1231): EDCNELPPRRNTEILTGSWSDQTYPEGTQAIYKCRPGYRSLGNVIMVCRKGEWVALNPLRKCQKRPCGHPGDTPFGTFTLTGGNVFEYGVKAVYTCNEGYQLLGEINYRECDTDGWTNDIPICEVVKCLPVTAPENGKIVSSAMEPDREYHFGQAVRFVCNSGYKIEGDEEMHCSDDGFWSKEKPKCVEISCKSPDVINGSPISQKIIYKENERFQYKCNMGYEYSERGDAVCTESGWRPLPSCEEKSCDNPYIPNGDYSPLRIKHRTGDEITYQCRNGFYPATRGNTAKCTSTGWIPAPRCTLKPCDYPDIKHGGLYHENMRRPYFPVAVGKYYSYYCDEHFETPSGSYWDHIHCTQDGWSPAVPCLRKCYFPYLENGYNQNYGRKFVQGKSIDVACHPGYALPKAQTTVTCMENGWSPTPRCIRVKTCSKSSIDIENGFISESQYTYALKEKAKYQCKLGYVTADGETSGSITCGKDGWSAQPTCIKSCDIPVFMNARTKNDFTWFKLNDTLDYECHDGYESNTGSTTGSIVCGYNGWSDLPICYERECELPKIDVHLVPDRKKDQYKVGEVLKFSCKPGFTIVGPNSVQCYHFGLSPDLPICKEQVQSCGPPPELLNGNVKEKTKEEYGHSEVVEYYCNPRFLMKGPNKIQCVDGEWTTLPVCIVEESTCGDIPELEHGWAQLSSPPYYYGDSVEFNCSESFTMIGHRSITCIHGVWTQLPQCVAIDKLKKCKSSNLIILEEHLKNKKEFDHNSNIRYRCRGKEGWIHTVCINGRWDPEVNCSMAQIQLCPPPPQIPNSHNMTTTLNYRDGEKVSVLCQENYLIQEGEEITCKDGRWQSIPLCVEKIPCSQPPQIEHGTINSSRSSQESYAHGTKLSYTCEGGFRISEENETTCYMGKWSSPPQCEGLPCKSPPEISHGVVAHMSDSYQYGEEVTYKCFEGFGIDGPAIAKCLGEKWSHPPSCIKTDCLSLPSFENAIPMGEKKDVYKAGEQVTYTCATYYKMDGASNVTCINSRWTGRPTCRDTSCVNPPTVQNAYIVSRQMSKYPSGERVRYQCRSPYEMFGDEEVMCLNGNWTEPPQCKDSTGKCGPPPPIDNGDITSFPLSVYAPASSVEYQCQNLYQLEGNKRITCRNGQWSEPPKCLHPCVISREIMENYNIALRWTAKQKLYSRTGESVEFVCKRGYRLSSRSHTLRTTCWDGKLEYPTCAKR

B1: His6-tagged CspA of B. mayonii MN14-1420 (CspA-like protein Bmayo_04535) (natural protein)
chain: TANPIDPKANGNIKPKNNINTKKNTNLEKNTQNFENESENPRSYNQKLLEATIKELKVIGKNLEDQRKEENIQIAKIVDEKFDFLGTFKVGPYDIIEENQQMKMKRIIYSSLNYKKEKIETLKEILETLKNNPEHQYIAGRLANLSWSIQFKIDDNFETIQNGVDNLDQEKSESLLMRAKSNLQLKERFKKTLNETLEAYSQNAQNIKNDIGILAEHVNKYYKYSDSLKPIFY
notes: also called CspA orthologous protein of B. mayonii; CspA ortholog; not shown: His6, N-terminal, kept
With B1 the Kd was 5.6 ± 0.58 nM.
